experiment: yeast display, Sf9 membrane polyspecificity reagent, FACS + sequencing; frameworks hold sequencing errors
How it was run: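 A synthetic nanobody library was expressed on Saccharomyces cerevisiae BJ5465 by galactose induction for 36–48 hours. The library was stained for 1 hour at 4 °C with 10% biotinylated, detergent-solubilized Sf9 membrane reagent and enriched with streptavidin microbeads before FACS. Low and high (top ~1%) gates were set on anti-HA fluorescence for expression and streptavidin fluorescence for reagent binding, and each polyreactivity label reflects the gate of origin.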

Sequence | polyreactivity (PSR sort gate)
QVQLVESGGGLVQAGGSLRLSCAASGSTFAINAMGWYRQAPGKERELVAAITYSGGGTYYADSVKGRFTISRENAKNTVYLQMNSLKPEDTAVYYCYAYGRSWVFNYIGVFLYDYWGQGTQVTVSS | low polyreactivity
QVQLVESGGGLVQAGGSLRLSCAASGSTFAINVMGWYRQAPGKERELVAAISSVGGTNYADSVKGRFTISRDNAKNTVYLQMNSLKPEDTAVYYCATVYSSWTVRYDYWGQGTQVTVSS | low polyreactivity
QVQLVESGGGLVQAGGSLRLSCAASGSTFAIYAMGWYRQAHGKERELVAAIRQRAGSTYYADSVKGRFTISRDNAKNTVYLQMNSLKPEDTAVYYCATATRPISRGYWGQGTQVTVSS | low polyreactivity
QVQLVESGGGLVQAGGSLRLSCAASGSTFAKYAMGWYRQAPGKERELVASIRLSGGSTYYADSVKGRFTISRDNAKNTVYLQMNSLKPEDTAVYYCNKPFPYYPDGPNGYDYWGQGTQVTVSS | low polyreactivity
QVQLVESGGGLVQAGGSLRLSCAASGSTFAKYAMGWYRQAPGKERELVAVISWGGGSTYYADSVKGRFTISRDNAKNTVYLQMNSLKPEDTAVYYCAAVYDEYQTTHEYDYWGQGTQVTVSS | low polyreactivity
QVQLVESGGGLVQAGGSLRLSCAASGSTFAKYAMGWYRQAPGKESELVASIRLSGGSTYYADSVKGRFTISRDNAKNTVYVQRNSLKPEDTAVYYCNKQFATFYYGFDYSYWGQGTQVTVSS | low polyreactivity
QVQLVESGGGLVQAGGSLRLSCAASGSTFALNAMGWYRQAPGKERELVAAIDDSGITYYADSVKGRFTISRDNAKNTVYLQMNSLKPDDTAVYYCAKKEWKSRTHAKGDQYPDDYWGQGTQVTVSS | low polyreactivity
QVQLVESGGGLVQAGGSLRLSCAASGSTFALYVMGRYRQAPGKERELVAAINSVGSKYYADSVKGRFTISRDNAKNTVYLQMHSLKPEDTSVYYCAAVSTYRPGWYYRYNYWGHGTQVTVSS | high polyreactivity
QVQLVESGGGLVQAGGSLRLSCAASGSTFANNAMGWYRQAPGKERELVASITTDGSTNYADSVKGRFTIARDNAKNTVYLQMNSLKPEDTAVYYGAADYHTPSSFAPIELYDYWGQGTQVTVSS | low polyreactivity
QVQLVESGGGLVQAGGSLRLSCAASGSTFAPYAMGWYRQAPGKERELVASIRSTGSTNYADSVKGRFTISRDNAKNTVYLQMNSLKPEDTAVYYCAARYRRYQYRVKVDYYYWGQGTQVTVSA | high polyreactivity
QVQLVESGGGLVQAGGSLRLSCAASGSTFARYTMGWYRQAPGKERELVAAITSNGVSTYYADSVKGRFTISRDNAKNTVYLQMNSLKPEDTAVYYCAASSRSRYGRNDYWGQGTQVTVSS | low polyreactivity
QVQLVESGGGLVQAGGSLRLSCAASGSTFARYTMGWYRQAPGKERELVATITNRGGSTYYADSVKGRFTISRDNAKNTVYLQMNSLKPEVTAVYYCNKRYYWGGYDYWGQGTQVTVSS | high polyreactivity
QVQLVESGGGLVQAGGSLRLSCAASGSTFATYAMGWYRQAPGKERELVAAITSGGSTYYADSVKGRFTISRDNAKNTVYLQMNSLKPEDTAVYYCAARSYGWRRATYYKREEYWGQGTQVTVSS | high polyreactivity
QVQLVESGGGLVQAGGSLRLSCAASGSTFAVNVMGWYRQAPGKERELVATITYRDGRTYYADSVKGRFTISRDNAKNTVYLQMNSLKPEDTAVYYCAADDEYKQEAEMDSWGQGTLVTVSS | low polyreactivity
QVQLVESGGGLVQAGGSLRLSCAASGSTFAVYAMGWYRQAPGKERELVASITDGGASTYYADSVKGRFTISRDNAKNTVYLQMNSLKPEDTAVYYCAADTYPTTSEVDYWGQGTQVTVSS | low polyreactivity
QVQLVESGGGLVQAGGSLRLSCAASGSTFAVYSMGWYTQAPGKERELVADSSYSGGSTYYADSVKGRFTISRDNAKNTVYLQMNSLIPEDTAVYYCAADWYDWLSTYDDWGQGTQVTVSS | low polyreactivity
QVQLVESGGGLVQAGGSLRLSCAASGSTFAVYTMGWYRQAPGKEREMSTSYADSVKGRFTISRDNAKNTVYLQMTCLKPEDTAVYYCNRDFYEFDSNSYRFDYWGQGTQVTVSS | low polyreactivity
QVQLVESGGGLVQAGGSLRLSCAASGSTFAYNAMGWYRQAPGKERELVAAISKGGGSTYYADSVKGRFTISRDNAKNTVYLQMNSLKPEDTAVYYCNAYYRSPRGYNYWGQGTQVTVSS | high polyreactivity
QVQLVESGGGLVQAGGSLRLSCAASGSTFAYNAMGWYRQAPGKERELVAAISWSGGTTYYADSVKGRFTISRDNAKNTVYLQMNSLKPEDTAVYYCAADVYLNRRQRMYYWGQGTQVTVSS | high polyreactivity
QVQLVESGGGLVQAGGSLRLSCAASGSTFAYYAMGWYRQAPGKERELVAAITRSTGRTYYADSVKGRFTISRDNAKNTVYLQMNSLKPEDTAVYYCAKTYGYRQPGDYWGQGTLVTVSS | high polyreactivity
QVQLVESGGGLVQAGGSLRLSCAASGSTFAYYAMGWYRQAPGKERELVAASSVSGGRTYYADSVQGRFTISRDNAKNTVYLQMNSLKPEDTAVYYCAARLWRDYYWGQGTQVTVSS | high polyreactivity
QVQLVESGGGLVQAGGSLRLSCAASGSTFAYYAMGWYRQAPGKERELVAVISVRGGSTYYADSVKGRFTISRDYAKNTVYLQMNSLKPEDTAVYYCAADTFAGYYYWGQGTQVTVSS | high polyreactivity
QVQLVESGGGLVQAGGSLRLSCAASGSTFAYYAMGWYRQAPGKERELVAVISVSGDGTSTYYADSVKGRFTISRDNAKNTVYLQMNSLKPEDSAVYYCAAEQVLVGGHTYSLTYDYWGQGTQVTVSS | low polyreactivity
QVQLVESGGGLVQAGGSLRLSCAASGSTFAYYAMGWYRQAPGKEREWVAGISGSGGSTYYADSVKGRFTISRDYAKNTVYLHMNSLKPEDTAVYYCAVVQRSKRTYPWYDYWGQGSQVTVSS | low polyreactivity
QVQLVESGGGLVQAGGSLRLSCAASGSTFAYYTMGWYRQAPGKERELVAAISSRGGSTYYADSVKGRFTISRDNAKNTVYLQMNSLKPEDTAVYYCAKSPRVAHYTSAYDYWGQGTQVTVSS | high polyreactivity
QVQLVESGGGLVQAGGSLRLSCAASGSTFAYYVMGWYRQAPGKERELVAAISRGGRTYYADSVKGSFTISRDNAKNTVYLQMNSLKPEDTSVYYCNKVYVVYSRSKGFYYTYLKYEYWGQGTQVTVSS | low polyreactivity
QVQLVESGGGLVQAGGSLRLSCAASGSTFAYYVMGWYRQAPGKERELVAAITSSGGRTYYADSVKGRFTISRDNAKNTVYLQMNSLKPEDTAVYYWAKVSQRRVDNSDYDYWGQGTQVTVSS | high polyreactivity
QVQLVESGGGLVQAGGSLRLSCAASGSTFCENDMGWYRQAPGKERELVAAISWTGGRTYYADSVKGRFTISRDNAKNTVYLQMNSLKAEDTAVYYFAAEWEYYGFDYWGQGTQVTVSS | low polyreactivity
QVQLVESGGGLVQAGGSLRLSCAASGSTFCYYDMGWYRQAPGKERELVATISSGGGTNYAASVKGRFTISRDNAKNTVYLQMNSLKPEDTAVYYCAAQYVIRITFYATYWEDYWGQGTQVTVSS | low polyreactivity
QVQLVESGGGLVQAGGSLRLSCAASGSTFDANAMGWYRQEPGKERELVATISDGGSTNYADSVKGRFTISRDNAKNTVYLQMNSLKPEDTAVYYCAADFSPWGGWYMSLDYWGQGTQVTVSS | low polyreactivity

Reference: the nanobody polyreactivity screen of Harvey et al. (2022)
